According to publication PMC4754349, “Tripartite assembly of RND multidrug efflux pumps” (Nature Communications, 2016):

B1: OprM reconstituted into nanodiscs (OprM–ND) (natural protein)
chain: CSLIPDYQRPEAPVAAAYPQGQAYGQNTGAAAVPAADIGWREFFRDPQLQQLIGVALENNRDLRVAALNVEAFRAQYRIQRADLFPRIGVDGSGTRQRLPGDLSTTGSPAISSQYGVTLGTTAWELDLFGRLRSLRDQALEQYLATEQAQRSAQTTLVASVATAYLTLKADQAQLQLTKDTLGTYQKSFDLTQRSYDVGVASALDLRQAQTAVEGARATLAQYTRLVAQDQNALVLLLGSGIPANLPQGLGLDQTLLTEVPAGLPSDLLQRRPDILEAEHQLMAANASIGAARAAFFPSISLTANAGTMSRQLSGLFDAGSGSWLFQPSINLPIFTAGSLRASLDYAKIQKDINVAQYEKAIQTAFQEVADGLAARGTFTEQLQAQRDLVKASDEYYQLADKRYRTGVDNYLTLLDAQRSLFTAQQQLITDRLNQLTSEVNLYKALGGGWNQQTVTQQQTAKKEDPQA
notes: OprM, outer membrane factor of Pseudomonas aeruginosa; called native; One trimer in each nanodisc (POPC, MSP1D1); also called OMF; source: E. coli C43ΔacrB, purified (HisTrap HP, gel filtration Superose 6), reconstituted into POPC/MSP1D1 nanodiscs
B2: lipidated MexA (natural protein)
chain: CGKSEAPPPAQTPEVGIVTLEAQTVTLNTELPGRTNAFRIAEVRPQVNGIILKRLFKEGSDVKAGQQLYQIDPATYEADYQSAQANLASTQEQAQRYKLLVADQAVSKQQYADANAAYLQSKAAVEQARINLRYTKVLSPISGRIGRSAVTEGALVTNGQANAMATVQQLDPIYVDVTQPSTALLRLRRELASGQLERAGDNAAKVSLKLEDGSQYPLEGRLEFSEVSVDEGTGSVTIRAVFPNPNNELLPGMFVHAQLQEGVKQKAILAPQQGVTRDLKGQATALVVNAQNKVELRVIKADRVIGDKWLVTEGLNAGDKIITEGLQFVQPGVEVKTVPAKNVASAQKADAAPAKTDSKG
modifications: lipidated (palmitoylation of an N-terminal cysteinyl residue)
notes: MexA, periplasmic membrane fusion protein of Pseudomonas aeruginosa, native lipidated form, 39 kDa monomer; also called native lipid-modified MFP; source: E. coli C43ΔacrB, purified (HisTrap HP, gel filtration Superose 6), in 0.03% DDM
B3: MexB reconstituted into nanodiscs (MexB–ND) (natural protein)
chain: MSKFFIDRPIFAWVIALVIMLAGGLSILSLPVNQYPAIAPPAIAVQVSYPGASAETVQDTVVQVIEQQMNGIDNLRYISSESNSDGSMTITVTFEQGTDPDIAQVQVQNKLQLATPLLPQEVQRQGIRVTKAVKNFLMVVGVVSTDGSMTKEDLSNYIVSNIQDPLSRTKGVGDFQVFGSQYSMRIWLDPAKLNSYQLTPGDVSSAIQAQNVQISSGQLGGLPAVKGQQLNATIIGKTRLQTAEQFENILLKVNPDGSQVRLKDVADVGLGGQDYSINAQFNGSPASGIAIKLATGANALDTAKAIRQTIANLEPFMPQGMKVVYPYDTTPVVSASIHEVVKTLGEAILLVFLVMYLFLQNFRATLIPTIAVPVVLLGTFGVLAAFGFSINTLTMFGMVLAIGLLVDDAIVVVENVERVMAEEGLSPREAARKSMGQIQGALVGIAMVLSAVFLPMAFFGGSTGVIYRQFSITIVSAMALSVIVALILTPALCATMLKPIEKGDHGEHKGGFFGWFNRMFLSTTHGYERGVASILKHRAPYLLIYVVIVAGMIWMFTRIPTAFLPDEDQGVLFAQVQTPPGSSAERTQVVVDSMREYLLEKESSSVSSVFTVTGFNFAGRGQSSGMAFIMLKPWEERPGGENSVFELAKRAQMHFFSFKDAMVFAFAPPSVLELGNATGFDLFLQDQAGVGHEVLLQARNKFLMLAAQNPALQRVRPNGMSDEPQYKLEIDDEKASALGVSLADINSTVSIAWGSSYVNDFIDRGRVKRVYLQGRPDARMNPDDLSKWYVRNDKGEMVPFNAFATGKWEYGSPKLERYNGVPAMEILGEPAPGLSSGDAMAAVEEIVKQLPKGVGYSWTGLSYEERLSGSQAPALYALSLLVVFLCLAALYESWSIPFSVMLVVPLGVIGALLATSMRGLSNDVFFQVGLLTTIGLSAKNAILIVEFAKELHEQGKGIVEAAIEACRMRLRPIVMTSLAFILGVVPLAISTGAGSGSQHAIGTGVIGGMVTATVLAIFWVPLFYVAVSTLFKDEASKQQASVEKGQ
notes: MexB, inner membrane RND transporter of Pseudomonas aeruginosa; called native; One trimer in each nanodisc (POPC, MSP1E3D1); also called RND; source: E. coli C43ΔacrB, purified (HisTrap HP, gel filtration Superose 6), reconstituted into POPC/MSP1E3D1 nanodiscs

Legend:
[1] = molecular target: the molecule itself; test: negative-stain electron microscopy, single-particle analysis; nanodisc-reconstituted RND and OMF mixed with lipidated MFP (1:1:10, or SEC-purified complex), stained with 2% uranyl acetate on carbon-coated grids; reference-free two-dimensional class averages (SPIDER)
[2] = molecular target: B3; test: native gel or EMSA; native PAGE, 4–15% gradient gel, Tris-Glycine running buffer, silver stained; nanodisc-reconstituted MexB and OprM mixed 1:1, with or without lipidated MexA (1:1:10 molar ratio); conditions: both partners purified
[3] = molecular target: B1; test: as above; conditions: both partners purified

Row | Binder | binding result [1] | binding result [2] | binding result [3]
1 | B1 | binds |  | 
2 | B2 |  | binds | binds
3 | B3 | binds |  | 
